Source: US20110263459, “DIRECT SELECTION OF STRUCTURALLY DEFINED APTAMERS” (published 2011)

Experiments:
[1] = target: HIV-1 nucleocapsid protein NCp7 (HIV-1) (UniProt P03349); conditions: Cy3-NCp7 microarray; 3.5x background (AUA)
[2] = target: T1, HIV-1 nucleocapsid protein NCp7 (HIV-1, UniProt P03349 P03349:380-434); test: Trp37 fluorescence quenching, PBS, 5 mM MgCl2, 25 C; negative on chip; conditions: tags: unlabelled for Trp titration; Cy3/Dylight-labelled for chips; made in house, >95% pure; hairpin
[3] = target: T1, HIV-1 nucleocapsid protein NCp7; test: Trp37 fluorescence quenching, PBS pH 7.4, 0.1% Tween-20, 5 mM MgCl2, 25 C; 1:1; conditions: tags: unlabelled for Trp titration; Cy3/Dylight-labelled for chips; made in house, >95% pure; hairpin
[4] = target: T1, HIV-1 nucleocapsid protein NCp7; test: multiple NCp7 bound per TBA in Trp37 titration; positive on chip; conditions: tags: unlabelled for Trp titration; Cy3/Dylight-labelled for chips; made in house, >95% pure; G4

TGTNNN [N6-56(64) pool]
binding signal (fold of GUG control) [1]: 1.5

GGACUAGCGAUAGCUAGUCC (ssRNA) [A control (SL3-AUA)]
Kd [2]: 200 nM

GGACUAGCGGUGGCUAGUCC (ssRNA) [G control (SL3-GUG)]
Kd [3]: 10 nM

GGTTGGTGTGGTTGG (structured_DNA) [control 33 (TBA)]
binding result [4]: binds
